Test results published in paper PMC4191419, “SSX2 is a novel DNA-binding protein that antagonizes polycomb group body formation and gene repression”.

Target: SSX2 (rSSX2) (UniProt Q16385 1-188)
Experiment: MST; Hill coefficient 3.0; 50 nM DNA; EMSA: 20 mM Tris-HCl pH 7.4, 50 mM NaCl, 1 mM DTT (complexes stable at 75 mM, dissolved at 250 mM NaCl; fragment used not stated); MST: 20 mM Tris-HCl pH 7.4, NaCl printed as 50 nM (probably 50 mM), 0.05% NP40, ambient temperature, 2 h
Conditions: protein: recombinant

Sequence of SSX2 (rSSX2) (Q16385 whole entry, the tested form may be a part): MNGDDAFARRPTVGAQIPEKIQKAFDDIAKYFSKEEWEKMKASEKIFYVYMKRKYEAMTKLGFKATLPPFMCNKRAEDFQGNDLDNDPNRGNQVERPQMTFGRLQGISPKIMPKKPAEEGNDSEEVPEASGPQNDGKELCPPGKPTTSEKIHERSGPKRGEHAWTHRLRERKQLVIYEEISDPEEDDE

B1: Cy5 random 30-nt dsDNA (dsDNA)
DNA 1: CGTCTATACTTTCACAATGTTGACCTGCAC
DNA 2: GTGCAGGTCAACATTGTGAAAGTATAGACG
Work on B1 yielded a Kd of 1.8 ± 0.2 µM.
